This note sets out measurements from PMC3322289.

Like-named read-outs stand apart in the source and are kept apart here.

Assay [1] has as its target Angiotensin II, P01019. Briefly: radioligand.
Assay [2] concerns the target Angiotensin II, P01019. Kind of assay: radioligand. This is another data set of the same source.

Angiotensin II, P01019, sequence (P01019 whole entry, looked up): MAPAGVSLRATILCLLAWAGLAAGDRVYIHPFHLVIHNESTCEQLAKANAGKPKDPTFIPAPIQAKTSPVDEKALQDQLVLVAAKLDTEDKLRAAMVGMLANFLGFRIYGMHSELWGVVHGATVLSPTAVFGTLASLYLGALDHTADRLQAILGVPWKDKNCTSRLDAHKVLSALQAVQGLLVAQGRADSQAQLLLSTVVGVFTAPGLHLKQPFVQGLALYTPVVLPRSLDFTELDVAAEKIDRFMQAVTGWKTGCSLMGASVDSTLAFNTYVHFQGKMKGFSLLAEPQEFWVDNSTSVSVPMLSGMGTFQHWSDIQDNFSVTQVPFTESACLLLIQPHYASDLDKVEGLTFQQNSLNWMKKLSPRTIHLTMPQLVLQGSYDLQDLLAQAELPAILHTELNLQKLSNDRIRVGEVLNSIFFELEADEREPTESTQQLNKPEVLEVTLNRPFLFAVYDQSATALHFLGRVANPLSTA

B1: Angiotensin II type 1 receptor (AT1R), P25095 (protein)
chain: MALNSSAEDGIKRIQDDCPKAGRHSYIFVMIPTLYSIIFVVGIFGNSLVVIVIYFYMKLKTVASVFLLNLALADLCFLLTLPLWAVYTAMEYRWPFGNHLCKIASASVSFNLYASVFLLTCLSIDRYLAIVHPMKSRLRRTMLVAKVTCIIIWLMAGLASLPAVIHRNVYFIENTNITVCAFHYESRNSTLPIGLGLTKNILGFLFPFLIILTSYTLIWKALKKAYEIQKNKPRNDDIFRIIMAIVLFFFFSWVPHQIFTFLDVLIQLGVIHDCKISDIVDTAMPITICIAYFNNCLNPLFYGFLGKKFKKYFLQLLKYIPPKAKSHSSLSTKMSTLSYRPSDNMSSSAKKPASCFEVE
As a reminder, the Kd is the free concentration of one partner at which half of the binding sites on the other are occupied at equilibrium, for simple one-to-one binding. A lower Kd goes with higher affinity. B1: the dissociation constant Kd with Angiotensin II, P01019 [1] stood at 3.32 nM; with Angiotensin II, P01019 [2], 3.57 nM.
